According to patent US20220372154A1 (APEXIGEN, published 2022):

T1: human TNFR2-His tagged protein (soluble) (human, UniProt P20333 23-257)
T1 construct: also called hTNFR2 (soluble); soluble TNFR2-His; not shown: His tag
T1 sequence (looked up): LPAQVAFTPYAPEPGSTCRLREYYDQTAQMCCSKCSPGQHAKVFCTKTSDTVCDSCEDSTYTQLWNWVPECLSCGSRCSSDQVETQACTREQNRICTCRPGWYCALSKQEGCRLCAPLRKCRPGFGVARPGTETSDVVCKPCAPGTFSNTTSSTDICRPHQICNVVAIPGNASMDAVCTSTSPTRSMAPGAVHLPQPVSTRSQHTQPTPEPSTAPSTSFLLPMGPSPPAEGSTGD

T2: cynomolgus TNFR2-His tagged protein (cynomolgus, UniProt A0A2K5VET2 132-366)
T2 construct: also called Cyno TNFR2; cynomolgus TNFR2 protein; not shown: His tag
T2 sequence: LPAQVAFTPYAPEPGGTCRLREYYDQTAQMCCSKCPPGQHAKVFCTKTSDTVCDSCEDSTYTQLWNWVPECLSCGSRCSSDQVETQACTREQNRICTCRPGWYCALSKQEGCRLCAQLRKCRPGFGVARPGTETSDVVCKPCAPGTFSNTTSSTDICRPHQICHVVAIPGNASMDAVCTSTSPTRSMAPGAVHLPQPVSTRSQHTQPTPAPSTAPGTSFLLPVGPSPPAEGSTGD

T3: soluble mouse TNFR2 (mouse, UniProt P25119 23-258, limits assumed)
T3 sequence (looked up): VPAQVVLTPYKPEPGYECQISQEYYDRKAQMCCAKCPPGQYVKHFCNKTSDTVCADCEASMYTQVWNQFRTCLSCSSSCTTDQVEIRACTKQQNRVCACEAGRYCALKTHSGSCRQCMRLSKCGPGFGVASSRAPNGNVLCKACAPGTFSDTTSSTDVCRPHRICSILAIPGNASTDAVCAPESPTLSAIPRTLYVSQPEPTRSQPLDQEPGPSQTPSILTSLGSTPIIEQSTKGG

T4: TNFR-Fc (UniProt P20333 23-257, limits assumed)
T4 construct: Printed only as TNFR-Fc; not shown: Fc part
T4 sequence (looked up): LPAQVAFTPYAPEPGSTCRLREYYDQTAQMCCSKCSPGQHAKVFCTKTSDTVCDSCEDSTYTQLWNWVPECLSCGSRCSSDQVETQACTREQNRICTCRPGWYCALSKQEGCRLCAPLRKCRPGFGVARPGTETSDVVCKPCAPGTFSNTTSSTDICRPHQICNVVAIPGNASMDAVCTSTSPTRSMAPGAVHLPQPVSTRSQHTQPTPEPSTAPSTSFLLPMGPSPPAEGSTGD

T5: human TNFR2 expressed on cells (human, UniProt P20333 23-461)
T5 construct: whole, on cells; also called hTNFR2 (cell); CHO-TNFR2
T5 sequence (looked up): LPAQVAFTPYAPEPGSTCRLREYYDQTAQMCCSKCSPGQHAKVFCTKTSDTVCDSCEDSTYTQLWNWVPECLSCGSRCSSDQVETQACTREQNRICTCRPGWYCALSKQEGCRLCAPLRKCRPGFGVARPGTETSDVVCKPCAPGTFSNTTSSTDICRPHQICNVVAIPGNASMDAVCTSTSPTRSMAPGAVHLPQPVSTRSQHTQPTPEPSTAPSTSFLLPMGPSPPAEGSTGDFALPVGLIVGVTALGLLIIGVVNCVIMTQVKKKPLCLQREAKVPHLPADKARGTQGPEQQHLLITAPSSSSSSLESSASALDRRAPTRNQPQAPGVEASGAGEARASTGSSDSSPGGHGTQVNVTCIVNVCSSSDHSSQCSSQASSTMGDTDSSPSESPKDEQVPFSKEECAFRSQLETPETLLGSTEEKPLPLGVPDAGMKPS


Columns and labels:
[1] = target: T1, human TNFR2-His tagged protein (soluble); test: ELISA on coated human TNFR2-His
Experimental: (§1) In FIGS. 3A-3B, human (3A) or cynomolgus (3B) TNFR2-His tagged protein was coated on 96-well ELISA plates at 1 μg/mL and incubated overnight at 4° C. Plates were washed and blocked using 1% BSA. Antibodies were added for 1 hour at room temperature (RT), washed, and detected using anti-Human HRP. Assay was developed using TMB substrate for 3-5 minutes. In FIG. 3C, FACS binding was performed on CHO cells that were engineered to express human TNFR2. Briefly, antibodies were incubated with 200,000 cells in MACS buffer for 1 hour followed by wash and detection using anti-human IgG BV421 for 20 minutes. Samples were analyzed using Cytoflex or MACSQuant flow cytometers. In FIG. 3D, ligand blocking ELISA was performed by coating plates with 1 ug/mL TNFR-Fc overnight at 4° C. Plates were washed, blocked and antibodies were incubated for 1 hr at RT. […] Assay was developed using TMB substrate for 5-7 minutes.

[2] = target: T2, cynomolgus TNFR2-His tagged protein; test: ELISA on coated cynomolgus TNFR2-His
Experimental: as §1

[3] = target: T3, soluble mouse TNFR2; test: binding screen on soluble mouse TNFR2 (mouse cross-reactivity)
[4] = target: T4, TNFR-Fc; test: TNF-α blocking ELISA on coated TNFR-Fc
Experimental: as §1

[5] = target: T5, human TNFR2 expressed on cells; test: flow cytometry on CHO cells expressing human TNFR2
Experimental: as §1

| Binder | EC50 [1] | EC50 [2] | binding result [3] | IC50 [4] | EC50 [5] |
| --- | --- | --- | --- | --- | --- |
| chimeric antibody clone 8G10.7 (rab600_23_8G10.7) (antibody, V domains shown) VH: LEQSGGGAGGGLVKPGGSLELCCKASGFTLINSHWICWVRQAPGKGLEWIGCIFAGSAGSTYYATWVSGRFTLSRDIDQNTGCLQLNSLTAADTAMYYCARDQTNTAYDPFYLNLWGQGTLVTVSS VL: IEMTQTPFSVSAAVGGTVTINCQASENIYSSLAWYQQKPGQPPKLLIYAASDLASGVPSRFSGSGSGTEYTLTISGVQCADAATYYCQSAYSSGSDDNGFGGGTEVVVK | 243 pM | 269 pM | no binding | – | – |
| chimeric antibody clone 24 (rab600_23_24) (antibody, V domains shown) VH: QSLEESGGRLVTPGTPLTLTCTASGFSLNSYGVNWVRQAPGKGLEWIGGINTGGSTYYANWAKGRFTISKTSAMVDLKVTSPTTEDTATYVCARTSGNNVYNYFTLWGQGTLVTVSS VL: DIVMTQTPSSVSAAVGGTVTIYCQASQSIPSLLAWYQQKSGQPPKLLIYAPSTLASGVPSRFKASGSGTQFTLTISDLECADAATYYCQSYYYGDNTYNNIFGGGTEVVVK | 98 pM | 93 pM | no binding | 3160 pM | 100 pM |
| chimeric antibody clone 37D1.4 (rab600_23_37D1.4) (antibody, V domains shown) VH: QSLEESGGRLVTPGTPLTLTCTVSGFSLNSNGMNWVRQAPGKGLEWIGGINAGGSAYYANWAKGRFTISKTSTMVDLKITSPTTEDTATYFCAKTSGINVYNYLNLWGQGTLVTVSS VL: DIVMTQTPSPVSAAVGGTVTINCQASQSIYTALAWYQQKSGQPPKLLIYAASTLASGVPSRFKGSGSGTQFTLTISDLECADAATYYCQNYYYGDNTYNNTFGGGTEVVVK | 156 pM | 81 pM | no binding | 27800 pM | – |
| chimeric antibody clone 8G11.5 (rab600_23_8G11.5) (antibody, V domains shown) VH: QSLEESGGRLVTPGTPLTLTCTVSGFSLNSNGMNWVRQAPGKGLEWIGGINAGGSAYYANWAKGRFTISKTSTMVDLKITSPTTEDTATYFCAKTSGINVYNYLNLWGQGTLVTVSS VL: DIVMTQTPSPVSAAVGGTVTINCQASQSIYTALAWYQQKSGQPPKLLIYAASTLASGVPSRFKGSGSGTQFTLTISDLECADAATYYCQNYYYGDNTYNNTFGGGTEVVVK | 157 pM | 92.8 pM | no binding | 24600 pM | – |
| chimeric antibody clone 25.71 (rab600_25_71) (antibody, V domains shown) VH: QSVEESEGRLVTPGTPLTLTCTVSGIDLSSYAMGWVRQAPGMGLEWIGDISTSGNAYYATWVKGRFTISRTSTTVDLKMASLTTADTATYFCARADYGGETYAFDPWGPGTLVTVSS VL: DIVMTQTPASVEAAVGGTVTIKCQASQSISSYLNWYQQKPGQPPKLLIYSASTLASGVPSRFKGSGSGTQFTLTISGVECADAATYYCQQGYSDSNIDNVFGGGTEVVVK | 147 pM | 197 pM | no binding | 2980 pM | 91 pM |
| chimeric antibody clone 28B7.3 (rab600_23_28B7.3) (antibody, V domains shown) VH: QSVEESGGRLVTPGTPLTLTCTVSGFSLNSHYMIWVRQAPGKGLEYIGIITSSDYIYYARWAKGRFTISKTSSTTVDLKITSPTTEDTATYSCARYNYDDDGELFNLWGQGTLVTVSS VL: AVLTQTPSSVSAAVGGTVTLNCQSSQSIDANNDLAWYQQKPGQPPRLLIYLASKLASGVPSRFSGSGSGTQFTLTISGVQCDDAATYYCLGGYDDDADNTFGGGTEVVVK | 149 pM | 76.3 pM | no binding | 2970 pM | 321 pM |
| chimeric antibody clone 37H4.1 (rab600_23_37H4.1) (antibody, V domains shown) VH: QSVEESGGRLVTPGTPLTLTCTVSGFSLNSHYMIWVRQAPGKGLEYIGVITSSDYIYYARWAKGRFTISKTSSTTVDLKITSPTTEDTATYFCARYNYDDDGELFNLWGQGTLVTVSS VL: AVLTQTPSSVSAAVGGTVTLNCQSSQSIDANNDLAWYQQKPGQPPKLLIYLASTRASGVPSRFKGSGSGTQFTLTISGVQCYDAATYYCLGGYDDDADNTFGGGTEVVVK | 184 pM | 195 pM | no binding | 2920 pM | – |
| chimeric antibody clone 55F6.1 (taken as rab600_23_55F6.6) (antibody, V domains shown) VH: QQQLEESGGDLVKPGASLTVTCTASGFSFTNNYYMCWVRQAPGKGLEWIGCIYPSIVGPTYYANWAKGRFTISKTSSTTVTLEMTSLTAADTATYFCVRDRYDDYGDYFNLWGPGTLVTVSS VL: DIVMTQTPASVSVPVGGTVTIKCQASQSIYNYLSWYQQKPGQPPKRLIYYASTLASGVPSRFSGSGSGTEFTLTISDLECADAATYYCQSNSGVNGNRYGNAFGGGTEVVVK | 124 pM | 86.2 pM | no binding | 4350 pM | 1320 pM |
| chimeric antibody clone 9 (rab600_25_9) (antibody, V domains shown) VH: QSVEESGGRLVTPGTPLTLTCTVSGFSLSTYDINWVRQAPGKGLEWIGIIYTGGITNFANWAKGRFTISKTSTTVDLKIASPTTEDTATYFCARGGYDSDGYVYPDAFDPWGPGTLVTVSS VL: ALVMTQTPASVEADVGGTVTINCQASESISNLLAWYQQKPGQRPKLLIYRASILTSGVSSRFKGSGSGTEYTLTINGVQCADAATYYCQHGYTGTNVQNVFGGGTEVVVK | 144 pM | 151 pM | no binding | 2780 pM | 147 pM |
| chimeric antibody clone 23.71 (rab600_23_71) (antibody, V domains shown) VH: QSVEESGGRLVTPGTSLTLTCTVSGIDLSSYAMSWVRQAQGKGLEWIGIIGDSGSTWYASWAKGRFTISKTSTTVDLKITSPTPEDTATYFCAREPDYGGYAGYGYGDLWGQGTLVTVSS VL: IKMTQTLASVSAAVGGTGSISCQASEDIGNYVAWYQQKPGQPPKFLIYDTSHLASGVPSRFKGSRSGKEFTLTISGVQCDDAATYYCQHGYYTSDTDNTFGGGTEVVVK | 206 pM | 243 pM | no binding | 5410 pM | 260 pM |
| chimeric antibody clone 11G12.1 (rab600_23_11G12.1) (antibody, V domains shown, also called rab600_23_HG12.1) VH: QSLEESGGDLVQPGASLTLTCTASGFSVNVNSYMCWVRQAPGKGLELIACIDTGSGGSTWYGSWAKGRFTISKSTNLNTVTLQMTSLTAADTATYFCARARNTYGYGDYVYGGAFDPWGPGTLVTVSS VL: DIVMTQTPASVEAAVGGTVTIKCQASQSISSTYLSWYQQKPGQRPKLLIYQASTLASGVPSRFKGSGSGTEFTLTISDLECADAATYYCQGGYFSDNGCYNAFGGGTEVVVK | 261 pM | 191 pM | no binding | – | – |
